Data: patent US10287317B2, “Proprotein convertase subtilisin kexin type 9 (PCSK9) allosteric binding ligands to modulate serum low density lipoprotein (LDL) levels” (SRX Cardio, LLC, priority 2013, dated 2019)
*1 amine or outer side, *2 acyl side, *3 side chain or, on linkers, in order; H or OH if unused. Where no end group is shown, it is not given here. [ ]: non-standard residue; d: D form. Cys(CH2-Ph) = S-benzyl-Cys, O=C([C@H](CSCc1ccccc1)N[*:1])[*:2]; Phe(3-CH2NH2) = O=C([C@H](Cc1cccc(CN[*:3])c1)N[*:1])[*:2]; d(pS) = N[C@H](COP(=O)(O)O)C(=O)O; pS = N[C@@H](COP(=O)(O)O)C(=O)O; Trp(3-Me) = 3-methyltryptophan; βAla = NCCC(=O)O

Key:
Type in all cases: cell-based
PCSK9-WT protein [1] = target: T1, PCSK9-WT protein (Homo sapiens, UniProt Q8NBP7); experiment: Cellular diI-LDL uptake in HuH7 cells with PCSK9-WT; details: HuH7, 1.0 μg/ml PCSK9-WT, 100 uM peptide (FIG. 2)
T1 construct: V5
Protocol: (§1) HuH7 cells were incubated in a 96-well plate for a total of 20 h in the absence (Cnt) or presence of 1.0 μg/ml PCSK9-WT protein alone (WT) or mixed with 100 uM of various SRX peptides. After 16 h, dil-LDL (5 ug/ml) was added to the incubation mixtures. After 4 h, fluorescence was measured (Ex: 520 nm/Em: 575 nm; cutoff: 550 nm). Dil-LDL uptake is calculated as RFU corrected for the number of cells.
(§2) LDL internalization was measured by uptake of a fluorescently tagged LDL molecule (diI-LDL) in the absence of exogenous PCSK9 (Cnt), in the presence of exogenous PCSK9 (normal PCSK9=WT, D374Y mutant PCSK9=DY), or in the presence of PCSK9 and a tested peptide (indicated as SRX##, or SRX if a single peptide results is shown in a graph).
(§3) Cells, such as HepG2, HuH7, FL83B or a cell line transfected with a short-hairpin PCSK9 knockdown sequence such as HepG2/shPCSK9, HuH7/shPCSK9, FL83B/shPCSK9, were seeded at 2×10^4 cells/well in a 96-well plate and cultured at 37 degC in RPMI+10% FBS. After approximately 24 hours, the cell media was aspirated off and replaced with RPMI+3-5 mg/mL LPDS (Lipoprotein Deficient Serum, Millipore) media for further experimentation. Benjannet et al., “Effects of the prosegment and pH on the activity of PCSK9: evidence for additional processing events” J Biol Chem. 285(52): 40965-40978 (2010).
(§4) Peptide activity was assessed by culturing cells with: i) no SRX peptide/PCSK9 protein complex (control, Cnt); ii) PCSK9 protein; and iii) SRX peptide/PCSK9 complex. Various permutations of these experimental conditions were also used, including: i) the addition of wild type PCSK9 (WT); ii) a mutant PCSK9 (e.g., D374Y mutant PCSK9, DY); iii) various SRX peptides and/or PCSK9 at the same concentration and/or combinations; iv) various SRX peptides and/or PCSK9 at different concentrations and/or combinations; v) the use of different cells, as mentioned above, with or without a transfected short-hairpin sequence; vi) a pre-incubation of the PCSK9 and SRX peptide (e.g., 1, hour, 2 hours, 3 hours, 4 hours etc.); vii) various temperatures including, but not limited to, body temperature (e.g., 37° C.), supraphysiologic temperature (e.g., 39° C.); and viii) with/without agitation (e.g., shaker or gentle periodic vortexing).
(§5) Cells were cultured using one of the combinations of conditions described in the preceding paragraph for 16 hours. After 16 hours, a quantity of diI-LDL (Low density lipoprotein coupled with 1,1′-dioctadecyl-3,3,3′,3′-tetramethylindocarbocyanine perchlorate) needed to bring the media concentration to 5 ug/mL of diI-LDL was added to the culture well and cells continued to be cultured under these new conditions for 4 additional hours. At the end of the 4-hour incubation period (20 total hours of cell culture), the cellular uptake was halted with the addition of 4% formaldehyde in 10 uM Hoechst 33342 in a solvent such as deionized autoclaved water or PBS, and specimens were incubated at 20° C. for 20 minutes. Cell specimens were rinsed twice with PBS and then fluorescence measured with excitation at 360 nm and emission detected at 460 nm to measure DNA content. Cell specimens were then be incubated with a 0.1% SDS in a 0.1 N NaOH solution while being shaken for 10 minutes. Fluorescence of the diI-LDL in the specimens were quantified using excitation at 530 nm and resulting emission at 580 nm.
Fluorescence measurements of diI-LDLR were normalized to estimated cell numbers, determined from the Hoechst fluorescence. Data was analyzed for the different experimental conditions and reported as percentage relative fluorescence units (RFU) of the Cnt specimen. Percent inhibition was calculated as the difference in RFU of a peptide exposed specimen to the RFU of PCSK9-no peptide, divided by the RFU difference in PCSK9-no peptide to RFU of Cnt specimen, also expressed as [(SRX:RFU)−(PCSK9-no peptide:RFU)]/[(PCSK9-no peptide:RFU)−(Cnt:RFU)]×100.

PCSK9-D374Y protein = PCSK9-D374Y protein (Homo sapiens, UniProt Q8NBP7, D374Y); experiment: Cellular diI-LDL uptake in HuH7 cells with PCSK9-D374Y
Protocol: as §1, with “0.5” for “1.0”, “PCSK9-D374Y” for “PCSK9-WT”, “(DY)” for “(WT)”
as §1, with “0.5” for “1.0”, “PCSK9 GOF-D374Y” for “PCSK9-WT”, “(DY)” for “(WT)”, “increasing concentrations” for “100 uM”
as §2, §3, §4, §5
Fluorescence measurements of diI-LDLR were normalized to estimated cell numbers, determined from the Hoechst fluorescence. […]

PCSK9-WT protein [2] = target: T1, PCSK9-WT protein; experiment: FACS analysis of cell surface LDLR in HuH7 cells with PCSK9-WT; details: HuH7 cells, FACS, exogenous WT PCSK9 plus peptide (FIG. 1, 100 μM)
Protocol: HuH7 cells were incubated for 18 h in the absence (Cnt) or presence of 0.75 μg/ml PCSK9-WT protein alone (WT) or mixed with 100 μM of various SRX peptides. The level of LDLR at the cell surface was measured by FACS using anti human LDLR Ab and a suitable secondary Ab labeled with Alexa 647. Cell surface LDLR is reported relative to Cnt. % inhibition of activity was calculated as [SRX−WT]/[Cnt−WT]×100%.
See, FIG. 1. In that experiment, the LDLR levels of a hepatocyte culture model (HuH7 cells) were measured by fluorescence activated cell sorting (FACS) in accordance with Example III. Cell surface LDLR is reported as a percentage of Basal levels of LDLR, indicated by the Cnt_Amm.Bic, Cnt_Ac.Acid, and Cnt bars in the top graph. See, FIG. 1 (top panel). LDLR levels in the presence of exogenous PCSK9 is indicated as WT_Amm.Bic, WT-Ac.Acid, and WT, and Exogenous PCSK9 in combination with a tested peptide is indicated as SRX##. The measured LDLR levels are reported as % versus basal controls (Cnt) of the respective group. […] This was further shown a percent inhibition (% inhibition was calculated as [SRX−WT]/[Cnt−WT]×100%) where positive modulation (increase) of LDLR level is reported as positive % inhibition, and negative modulation (decrease) of LDLR level is reported as negative % inhibition. See, FIG. 1 (bottom panel).
Benjannet et al., “Effects of the prosegment and pH on the activity of PCSK9: evidence for additional processing events” J Biol Chem. 285(52): 40965-40978 (2010). The cells were then washed 3× with solution A (calcium/magnesium-free Dulbecco's PBS (Invitrogen) containing 0.5% bovine serum albumin (Sigma) and 1 g/liter glucose)). The cells were then incubated for 10 min at room temperature with 1× Versene solution (Invitrogen) followed by the addition of 5 ml of solution A. The cells were then incubated for 40 min in solution A containing a human LDLR mAb-C7 (1:100; Santa Cruz Biotechnology). Following washes, the cells were then incubated for 20 min in solution A containing a secondary antibody (Alexa Fluor 647 donkey anti-mouse antibody; 1:250; Molecular Probes).
Following suspension in PBS containing 0.2% of propidium iodide, the cells were analyzed by FACS for both propidium iodide (dead cells) and LDLR in live cells with Alexa Fluor 647 using the FACS BD LSR (BD Biosciences).

[3] = HuH7, 0.5 μg/ml PCSK9-D374Y, 100 uM peptide (FIG. 3)
[4] = HuH7, 0.5 μg/ml PCSK9 GOF-D374Y, increasing concentrations of peptide (FIG. 4)

PCSK9-D374Y protein, sequence (Q8NBP7 153-692 D374Y): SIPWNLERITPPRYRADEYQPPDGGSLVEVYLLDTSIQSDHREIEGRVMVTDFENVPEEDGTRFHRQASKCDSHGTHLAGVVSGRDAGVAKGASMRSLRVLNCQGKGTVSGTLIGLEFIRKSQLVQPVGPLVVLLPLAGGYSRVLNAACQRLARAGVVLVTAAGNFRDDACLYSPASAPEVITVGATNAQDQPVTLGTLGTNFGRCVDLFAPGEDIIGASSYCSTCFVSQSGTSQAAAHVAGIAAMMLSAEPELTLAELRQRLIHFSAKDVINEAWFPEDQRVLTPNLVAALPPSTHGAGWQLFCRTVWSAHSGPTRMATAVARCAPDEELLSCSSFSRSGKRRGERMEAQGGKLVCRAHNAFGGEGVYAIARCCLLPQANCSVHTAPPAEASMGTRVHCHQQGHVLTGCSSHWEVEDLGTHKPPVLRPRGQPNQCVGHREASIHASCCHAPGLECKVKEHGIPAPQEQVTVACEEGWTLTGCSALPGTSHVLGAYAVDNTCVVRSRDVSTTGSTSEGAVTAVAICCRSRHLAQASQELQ
T1 sequence (Q8NBP7 153-692): as the sequence (Q8NBP7 153-692 D374Y) above, with Y222D counted along it

Row | Substance | LDL internalization (dil-LDL % uptake vs Cnt) (PCSK9-WT protein [1]) | LDL internalization (dil-LDL % uptake vs Cnt) (PCSK9-D374Y protein; [3]) | LDL internalization (dil-LDL % uptake vs Cnt) (PCSK9-D374Y protein; [4]) | modulation of LDLR cell surface level (PCSK9-WT protein [2])
1 | LDLFFS [Compound 9] | negatively modulated (decreased) | positively modulated (increased) | positively modulated (increased) | 
2 | Phe(4-Ph)-Ala-Ser(p)-morpholine [Compound 16] | negatively modulated (decreased) | negatively modulated (decreased) |  | negatively modulate (decrease)
3 | Thr-Leu-Cys(CH2-Ph)-Thr-Trp(3-Me)-Ser-Ser-Ser(p) (TL[Cys(CH2-Ph)]T[Trp(3-Me)]SS[pS]) [Compound 7] | negatively modulated (decreased) | positively modulated (increased) |  | 
4 | Thr-Leu-Cys(CH2-Ph)-Thr-Trp-Ser-Ser-Ser(p) [Compound 3] | positively modulated (increased) | positively modulated (increased) | positively modulated (increased) | positively modulate (increase)

The remaining lines, values ahead:

Row | LDL internalization (dil-LDL % uptake vs Cnt) (PCSK9-WT protein [1]) | LDL internalization (dil-LDL % uptake vs Cnt) (PCSK9-D374Y protein; [3]) | LDL internalization (dil-LDL % uptake vs Cnt) (PCSK9-D374Y protein; [4]) | modulation of LDLR cell surface level (PCSK9-WT protein [2]) | Substance
5 | negatively modulated (decreased) | negatively modulated (decreased) |  |  | Thr-Leu-Thr-Trp-Ser-Ser-Ser(p) (TLTWSS[pS]) [Compound 15]
6 | negatively modulated (decreased) |  |  |  | VLELYW [Compound 8]
7 | positively modulated (increased) | positively modulated (increased) | positively modulated (increased) | positively modulate (increase) | β-Ala-Phe(3-CH2NH2)-Val-D-Ser(p)-Phe-Trp ([βAla][Phe(3-CH2NH2)]V[d(pS)]FW) [Compound 2]
